Data: patent US20250135022A1, “METHODS FOR THE USE OF A B7-H3 ANTIBODY-DRUG CONJUGATE IN COMBINATION WITH A PD-1 X CTLA-4 BISPECIFIC MOLECULE” (MACROGENICS, INC., priority 2022, published 2025)

Molecular target: T1, B7-H3 of cynomolgus monkeys (Macaca fascicularis, UniProt A0A7N9CYV2)
T1 sequence (A0A7N9CYV2 29-534): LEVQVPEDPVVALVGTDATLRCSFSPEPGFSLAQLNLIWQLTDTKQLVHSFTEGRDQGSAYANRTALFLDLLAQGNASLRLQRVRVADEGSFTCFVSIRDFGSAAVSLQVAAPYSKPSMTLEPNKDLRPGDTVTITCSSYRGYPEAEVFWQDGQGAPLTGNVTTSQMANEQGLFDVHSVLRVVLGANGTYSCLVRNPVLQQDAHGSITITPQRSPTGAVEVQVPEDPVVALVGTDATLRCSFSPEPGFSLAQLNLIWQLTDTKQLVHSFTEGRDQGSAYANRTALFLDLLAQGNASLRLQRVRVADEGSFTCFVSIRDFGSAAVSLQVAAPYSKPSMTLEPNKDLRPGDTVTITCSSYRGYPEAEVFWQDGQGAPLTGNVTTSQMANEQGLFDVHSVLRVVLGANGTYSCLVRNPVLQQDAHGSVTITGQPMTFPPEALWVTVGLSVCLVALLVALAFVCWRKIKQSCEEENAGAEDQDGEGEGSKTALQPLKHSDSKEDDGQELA
Assay: Cross-reactivity of anti-B7-H3 antibody
Assay type: binding

B1: mAb-A: anti-B7-H3 antibody isolated from hybridoma cells; murine VL SEQ ID NO:15, VH SEQ ID NO:16 (antibody, V domains shown)
VH: EVQQVESGGDLVKPGGSLKLSCAASGFTFSSYGMSWVRQTPDKRLEWVATINSGGSNTYYPDSLKGRFTISRDNAKNTLYLQMRSLKSEDTAMYYCARHDGGAMDYWGQGTSVTVSS
VL: DIQMTQSPASLSVSVGETVTITCRASESIYSYLAWYQQKQGKSPQLLVYNTKTLPEGVPSRFSGSGSGTQFSLKINSLQPEDFGRYYCQHHYGTPPWTFGGGTNLEIK
modifications: Synthetic: amino acid sequence of the VH Domain of anti-B7-H3 mAb-A; Synthetic: amino acid sequence of the VL Domain of the murine anti-B7-H3 antibody mAb-A
cross-reactivity with B7-H3 of cynomolgus monkeys: cross-reactive
